Legend:
corn protoplasts [1] = assay: Calcium burst in transiently transfected corn protoplasts, R-GECO1.2 fluorescence reporter; assay type: cell-based, Zea mays; details: Example 3, FIG. 4; 1 μM PpNLP20; 40 minutes; 384-well
corn protoplasts [2] = assay: Calcium burst in transiently transfected corn protoplasts, apoaequorin luminescence reporter

B1: AtRLP23+TM-AtSOBIR1-3×FLAG: AtRLP23 apoplastic, eJM and TM domains, AtSOBIR1 cytoplasmic domain, 3×FLAG; SEQ ID NO: 41, 42 (protein)
chain: MSKALLHLHFLSLFLLCCVCHSSIFTLNFHFTGIVACRPHQIQAFTKFTNEFDTRGCNNSDTFNGVWCDNSTGAVAVLQLRKCLSGTLKSNSSLFGFHQLRYVDLQNNNLTSSSLPSGFGNLKRLEGLFLSSNGFLGQVPSSFSNLTMLAQLDLSYNKLTGSFPLVRGLRKLIVLDLSYNHFSGTLNPNSSLFELHQLRYLNLAFNNFSSSLPSKFGNLHRLENLILSSNGFSGQVPSTISNLTRLTKLYLDQNKLTSSFPLVQNLTNLYELDLSYNKFFGVIPSSLLTLPFLAHLALRENNLAGSVEVSNSSTSSRLEIMYLGSNHFEGQILEPISKLINLKHLDLSFLNTSYPIDLKLFSSLKSLRSLDLSGNSISSASLSSDSYIPLTLEMLTLRHCDINEFPNILKTLKELVYIDISNNRMKGKIPEWLWSLPLLQSVTLGNNYFTGFQGSAEILVNSSVLLLYLDSNNFEGALPDLPLSIKGFGVASNSFTSEIPLSICNRSSLAAIDLSYNNFTGPIPPCLRNLELVYLRNNNLEGSIPDALCDGASLRTLDVSHNRLTGKLPRSFVNCSSLKFLSVINNRIEDTFPFWLKALPNLQVLTLRSNRFYGPISPPHQGPLGFPELRIFEISDNKFTGSLPPNYFVNWKASSRTMNQDGGLYMVYEEKLFDEGGYGYTDALDLQYKGLHMEQAKALTSYAAIDFSGNRLEGQIPESIGLLKALIAVNISNNAFTGHIPLSMANLENLESLDMSRNQLSGTIPNGLGSISFLAYINVSHNQLTGEIPQGTQITGQSKSSFEGNAGLCGLPLKESCFGTGAPPMYHQKQEDKEEEEEEEEEEEEVLNGRAVAIGYGSGLLLGLAIAQVIASYKLIIQAIRGSEKPPGPSIFSPLIKKAEDLAFLENEEALASLEIIGRGGCGEVFKAELPGSNGKIIAVKKVIQPPKDADELTDEDSKFLNKKMRQIRSEINTVGHIRHRNLLPLLAHVSRPECHYLVYEYMEKGSLQDILTDVQAGNQELMWPARHKIALGIAAGLEYLHMDHNPRIIHRDLKPANVLLDDDMEARISDFGLAKAMPDAVTHITTSHVAGTVGYIAPEFYQTHKFTDKCDIYSFGVILGILVIGKLPSDEFFQHTDEMSLIKWMRNIITSENPSLAIDPKLMDQGFDEQMLLVLKIACYCTLDDPKQRPNSKDVRTMLSQIKHSDYKDHDGDYKDHDLDAAAADYKDDDDK
modifications: Fusion protein
responsiveness to PpNLP20 treatment compared to AtRLP23-3×FLAG (total transient increase of fluorescence) (corn protoplasts [1]): increased responsiveness

B2: AtRLP23-AtPEPR1-3×FLAG: AtRLP23 apoplastic and eJM domains, AtPEPR1 TM and kinase domains, 3×FLAG; SEQ ID NO: 572, 573 (protein)
chain: MSKALLHLHFLSLFLLCCVCHSSIFTLNFHFTGIVACRPHQIQAFTKFTNEFDTRGCNNSDTFNGVWCDNSTGAVAVLQLRKCLSGTLKSNSSLFGFHQLRYVDLQNNNLTSSSLPSGFGNLKRLEGLFLSSNGFLGQVPSSFSNLTMLAQLDLSYNKLTGSFPLVRGLRKLIVLDLSYNHFSGTLNPNSSLFELHQLRYLNLAFNNFSSSLPSKFGNLHRLENLILSSNGFSGQVPSTISNLTRLTKLYLDQNKLTSSFPLVQNLTNLYELDLSYNKFFGVIPSSLLTLPFLAHLALRENNLAGSVEVSNSSTSSRLEIMYLGSNHFEGQILEPISKLINLKHLDLSFLNTSYPIDLKLFSSLKSLRSLDLSGNSISSASLSSDSYIPLTLEMLTLRHCDINEFPNILKTLKELVYIDISNNRMKGKIPEWLWSLPLLQSVTLGNNYFTGFQGSAEILVNSSVLLLYLDSNNFEGALPDLPLSIKGFGVASNSFTSEIPLSICNRSSLAAIDLSYNNFTGPIPPCLRNLELVYLRNNNLEGSIPDALCDGASLRTLDVSHNRLTGKLPRSFVNCSSLKFLSVINNRIEDTFPFWLKALPNLQVLTLRSNRFYGPISPPHQGPLGFPELRIFEISDNKFTGSLPPNYFVNWKASSRTMNQDGGLYMVYEEKLFDEGGYGYTDALDLQYKGLHMEQAKALTSYAAIDFSGNRLEGQIPESIGLLKALIAVNISNNAFTGHIPLSMANLENLESLDMSRNQLSGTIPNGLGSISFLAYINVSHNQLTGEIPQGTQITGQSKSSFEGNAGLCGLPLKESCFGTGAPPMYHQKQEDKEEEEEEEEEEEEVLNGRIVLIAVLSSLLVLVVVLALVFICLRRRKGRPEKDAYVFTQEEGPSLLLNKVLAATDNLNEKYTIGRGAHGIVYRASLGSGKVYAVKRLVFASHIRANQSMMREIDTIGKVRHRNLIKLEGFWLRKDDGLMLYRYMPKGSLYDVLHGVSPKENVLDWSARYNVALGVAHGLAYLHYDCHPPIVHRDIKPENILMDSDLEPHIGDFGLARLLDDSTVSTATVTGTTGYIAPENAFKTVRGRESDVYSYGVVLLELVTRKRAVDKSFPESTDIVSWVRSALSSSNNNVEDMVTTIVDPILVDELLDSSLREQVMQVTELALSCTQQDPAMRPTMRDAVKLLEDVKHLARSCSSDSVRSDYKDHDGDYKDHDLDAAAADYKDDDDK
modifications: Fusion protein
Ca^2+ burst in response to all tested NLP peptides (corn protoplasts [2]; Example 6, FIG. 8, CgNLP24b, FgNLP24c, FvNLP24a, SmNLP24): Ca^2+ burst | increase in Ca^2+ compared to control buffer treatment (corn protoplasts [2]; FIG. 8, all peptides tested): statistically significant
